First the molecules themselves.
B1: DnaJ homolog subfamily C member 5 (Homo sapiens), Q9H3Z4 (parent)
chain: MADQRQRSLSTSGESLYHVLGLDKNATSDDIKKSYRKLALKYHPDKNPDNPEAADKFKEINNAHAILTDATKRNIYDKYGSLGLYVAEQFGEENVNTYFVLSSWWAKALFVFCGLLTCCYCCCCLCCCFNCCCGKCKPKAPEGEETEFYVSPEDLEAQLQSDEREATDTPIVIQPASATETTQLTADSHPSYHTDGFN
partner: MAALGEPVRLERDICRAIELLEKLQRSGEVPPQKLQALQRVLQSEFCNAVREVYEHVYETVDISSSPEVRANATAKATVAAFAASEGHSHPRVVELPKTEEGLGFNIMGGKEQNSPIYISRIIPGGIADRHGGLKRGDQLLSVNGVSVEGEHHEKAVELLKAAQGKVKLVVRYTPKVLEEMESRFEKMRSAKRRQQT
B2: DnaJ homolog subfamily C member 5 (Homo sapiens), Q9H3Z4 (parent)
chain: B1 chain
partner: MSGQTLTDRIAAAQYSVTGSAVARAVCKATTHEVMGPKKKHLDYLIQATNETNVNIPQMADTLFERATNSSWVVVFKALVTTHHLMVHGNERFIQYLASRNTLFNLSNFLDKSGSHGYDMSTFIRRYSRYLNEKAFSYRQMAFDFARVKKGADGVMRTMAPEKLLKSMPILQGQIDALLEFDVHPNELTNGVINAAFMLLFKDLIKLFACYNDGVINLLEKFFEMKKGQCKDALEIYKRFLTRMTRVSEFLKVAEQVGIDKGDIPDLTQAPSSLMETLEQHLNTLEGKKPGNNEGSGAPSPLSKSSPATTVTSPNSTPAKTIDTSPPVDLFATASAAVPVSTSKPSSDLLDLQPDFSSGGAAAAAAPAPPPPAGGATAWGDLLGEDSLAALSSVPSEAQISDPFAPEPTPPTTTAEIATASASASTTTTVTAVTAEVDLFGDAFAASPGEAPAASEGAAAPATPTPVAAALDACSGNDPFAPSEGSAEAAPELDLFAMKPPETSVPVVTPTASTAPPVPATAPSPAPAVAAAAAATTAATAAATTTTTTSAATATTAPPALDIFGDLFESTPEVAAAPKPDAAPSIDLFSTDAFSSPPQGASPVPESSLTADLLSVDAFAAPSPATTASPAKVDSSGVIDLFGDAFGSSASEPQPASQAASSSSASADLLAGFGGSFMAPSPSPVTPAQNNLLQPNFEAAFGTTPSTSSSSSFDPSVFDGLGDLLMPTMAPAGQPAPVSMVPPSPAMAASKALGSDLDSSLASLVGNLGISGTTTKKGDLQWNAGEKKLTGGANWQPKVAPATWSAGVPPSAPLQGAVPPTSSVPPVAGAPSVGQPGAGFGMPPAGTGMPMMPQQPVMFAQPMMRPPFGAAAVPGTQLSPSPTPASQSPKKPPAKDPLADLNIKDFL
B3: DnaJ homolog subfamily C member 5 (Homo sapiens), Q9H3Z4 (parent)
chain: B1 chain
partner: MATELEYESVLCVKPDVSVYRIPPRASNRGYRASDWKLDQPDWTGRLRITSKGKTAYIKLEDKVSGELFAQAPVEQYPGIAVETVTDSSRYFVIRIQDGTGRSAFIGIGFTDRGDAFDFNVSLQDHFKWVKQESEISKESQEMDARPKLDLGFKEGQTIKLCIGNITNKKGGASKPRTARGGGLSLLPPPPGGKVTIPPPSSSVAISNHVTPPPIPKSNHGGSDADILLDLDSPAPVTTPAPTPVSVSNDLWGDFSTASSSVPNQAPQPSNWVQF
B4: DnaJ homolog subfamily C member 5 (Homo sapiens), Q9H3Z4 (parent)
chain: B1 chain
partner: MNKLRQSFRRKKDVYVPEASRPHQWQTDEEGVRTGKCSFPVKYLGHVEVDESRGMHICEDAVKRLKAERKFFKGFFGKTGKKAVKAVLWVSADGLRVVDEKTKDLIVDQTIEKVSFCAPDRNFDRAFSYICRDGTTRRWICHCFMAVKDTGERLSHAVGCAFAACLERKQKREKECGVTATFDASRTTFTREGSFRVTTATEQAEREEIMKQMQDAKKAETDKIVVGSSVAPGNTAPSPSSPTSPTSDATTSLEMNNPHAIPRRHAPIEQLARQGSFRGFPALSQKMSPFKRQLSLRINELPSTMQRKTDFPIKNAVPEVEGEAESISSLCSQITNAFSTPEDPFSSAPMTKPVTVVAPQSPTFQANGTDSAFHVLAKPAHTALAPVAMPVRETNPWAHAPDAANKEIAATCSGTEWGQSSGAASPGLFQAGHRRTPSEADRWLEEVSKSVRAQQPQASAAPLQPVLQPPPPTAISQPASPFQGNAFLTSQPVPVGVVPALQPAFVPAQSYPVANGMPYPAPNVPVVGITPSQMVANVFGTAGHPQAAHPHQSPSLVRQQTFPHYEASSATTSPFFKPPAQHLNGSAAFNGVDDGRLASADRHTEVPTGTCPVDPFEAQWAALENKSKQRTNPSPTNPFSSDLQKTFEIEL
B5: DnaJ homolog subfamily C member 5 (Homo sapiens), Q9H3Z4 (parent)
chain: B1 chain
partner: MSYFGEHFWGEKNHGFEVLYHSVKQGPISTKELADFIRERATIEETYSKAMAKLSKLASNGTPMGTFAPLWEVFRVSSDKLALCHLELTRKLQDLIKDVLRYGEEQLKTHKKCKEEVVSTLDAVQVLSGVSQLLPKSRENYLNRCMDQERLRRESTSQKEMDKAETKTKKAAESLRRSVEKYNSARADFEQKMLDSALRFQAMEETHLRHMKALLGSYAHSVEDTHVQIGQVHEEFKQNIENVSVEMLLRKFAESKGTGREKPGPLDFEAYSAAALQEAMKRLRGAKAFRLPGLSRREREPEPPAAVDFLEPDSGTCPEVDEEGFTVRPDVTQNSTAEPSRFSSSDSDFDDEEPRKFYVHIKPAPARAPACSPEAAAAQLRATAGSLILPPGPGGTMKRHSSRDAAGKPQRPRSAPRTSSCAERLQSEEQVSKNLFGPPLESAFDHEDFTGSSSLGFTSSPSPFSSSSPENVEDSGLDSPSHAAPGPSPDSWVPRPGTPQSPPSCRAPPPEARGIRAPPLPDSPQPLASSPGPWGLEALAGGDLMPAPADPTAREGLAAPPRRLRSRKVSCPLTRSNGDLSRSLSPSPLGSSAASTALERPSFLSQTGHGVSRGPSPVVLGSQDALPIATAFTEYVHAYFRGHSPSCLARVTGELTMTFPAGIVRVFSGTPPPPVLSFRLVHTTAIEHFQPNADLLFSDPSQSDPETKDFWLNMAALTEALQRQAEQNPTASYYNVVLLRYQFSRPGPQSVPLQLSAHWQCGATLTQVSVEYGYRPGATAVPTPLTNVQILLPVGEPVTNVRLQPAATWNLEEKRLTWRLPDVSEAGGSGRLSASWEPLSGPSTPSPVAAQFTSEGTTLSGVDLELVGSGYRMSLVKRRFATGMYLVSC
B6: DnaJ homolog subfamily C member 5 (Homo sapiens), Q9H3Z4 (parent)
chain: B1 chain
partner: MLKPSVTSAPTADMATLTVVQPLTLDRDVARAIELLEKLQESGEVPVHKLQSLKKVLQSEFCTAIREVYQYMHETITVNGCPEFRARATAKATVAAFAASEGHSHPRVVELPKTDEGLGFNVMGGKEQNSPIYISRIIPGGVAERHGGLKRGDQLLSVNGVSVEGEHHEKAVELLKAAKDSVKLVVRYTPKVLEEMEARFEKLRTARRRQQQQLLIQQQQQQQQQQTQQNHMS

In the first experiment the parent is B1. As to conditions: with lin7c_human LIN7C.
For the variant MADQRQRSLSTSGESLYHVLGLDKNATSDDIKKSYRKLALKYHPDKNPDNPEAADKFKEINNAHAILTDATKRNIYDKYGSLGLYVAEQFGEENVNTYFVLSSWWAKALFVFCGRLTCCYCCCCLCCCFNCCCGKCKPKAPEGEETEFYVSPEDLEAQLQSDEREATDTPIVIQPASATETTQLTADSHPSYHTDGFN [L115R], the “effect of a mutation on the interaction” value is reported as “with no effect”.

Variants of B2 are the subject of a further experiment. To be noted: with ap180_human SNAP91, O60641.
For the variant MADQRQRSLSTSGESLYHVLGLDKNATSDDIKKSYRKLALKYHPDKNPDNPEAADKFKEINNAHAILTDATKRNIYDKYGSLGLYVAEQFGEENVNTYFVLSSWWAKALFVFCGRLTCCYCCCCLCCCFNCCCGKCKPKAPEGEETEFYVSPEDLEAQLQSDEREATDTPIVIQPASATETTQLTADSHPSYHTDGFN [L115R], the “effect of a mutation on the interaction” value is reported as “with no effect”.

Variants of B3 are the subject of another experiment. As to conditions: with necp1_human NECAP1, Q8NC96.
MADQRQRSLSTSGESLYHVLGLDKNATSDDIKKSYRKLALKYHPDKNPDNPEAADKFKEINNAHAILTDATKRNIYDKYGSLGLYVAEQFGEENVNTYFVLSSWWAKALFVFCGRLTCCYCCCCLCCCFNCCCGKCKPKAPEGEETEFYVSPEDLEAQLQSDEREATDTPIVIQPASATETTQLTADSHPSYHTDGFN [L115R]: the “effect of a mutation on the interaction” value was “with no effect”.

A further experiment covers variants of B4. To be noted: with numb_human NUMB.
On to MADQRQRSLSTSGESLYHVLGLDKNATSDDIKKSYRKLALKYHPDKNPDNPEAADKFKEINNAHAILTDATKRNIYDKYGSLGLYVAEQFGEENVNTYFVLSSWWAKALFVFCGRLTCCYCCCCLCCCFNCCCGKCKPKAPEGEETEFYVSPEDLEAQLQSDEREATDTPIVIQPASATETTQLTADSHPSYHTDGFN [L115R], for which the “effect of a mutation on the interaction” value is listed as “with no effect”.

Variants of B5 are the subject of a further experiment. As to conditions: with fcho1_human FCHO1, O14526.
In the case of MADQRQRSLSTSGESLYHVLGLDKNATSDDIKKSYRKLALKYHPDKNPDNPEAADKFKEINNAHAILTDATKRNIYDKYGSLGLYVAEQFGEENVNTYFVLSSWWAKALFVFCGRLTCCYCCCCLCCCFNCCCGKCKPKAPEGEETEFYVSPEDLEAQLQSDEREATDTPIVIQPASATETTQLTADSHPSYHTDGFN [L115R], the “effect of a mutation on the interaction” value is reported as “decreasing interaction strength”.

Variants of B6 are the subject of the next experiment. As to conditions: with lin7a_human LIN7A.
Turning to MADQRQRSLSTSGESLYHVLGLDKNATSDDIKKSYRKLALKYHPDKNPDNPEAADKFKEINNAHAILTDATKRNIYDKYGSLGLYVAEQFGEENVNTYFVLSSWWAKALFVFCGRLTCCYCCCCLCCCFNCCCGKCKPKAPEGEETEFYVSPEDLEAQLQSDEREATDTPIVIQPASATETTQLTADSHPSYHTDGFN [L115R], the “effect of a mutation on the interaction” value is reported as “with no effect”.

(Values after IntAct's records for PubMed 29997244.)
